Biological target: Wnt receptors on the cell surface of the HEK293 TCF9-SEAP reporter cell line
Assay: cell-based or functional assay

recombinant human Wnt3a protein (from UniProt P56704 19-352) (ligand)
ED50 in the HEK293 TCF9-Secreted Alkaline Phosphatase (SEAP) Wnt-responsive reporter assay, lot DLGC02: 0.221 mg/L
ED50 in the HEK293 TCF9-Secreted Alkaline Phosphatase (SEAP) Wnt-responsive reporter assay, lot RSK51: 0.145 mg/L
ED50 in the HEK293 TCF9-Secreted Alkaline Phosphatase (SEAP) Wnt-responsive reporter assay, lot RSK69: 0.191 mg/L
